Experimental data as given in patent publication US20140363428A1 (Chugai, published 2014).
Substitutions are numbered along the chain they refer to. One block for each binder: values may come before it.

Molecular target: T1, soluble human FcRn (human, UniProt P55899 24-297; P61769 21-119)
T1 construct: Heterodimer of alpha chain and beta2-microglobulin; also called hFcRn
Assay: SPR (Biacore), pH 7.0

B2: Fv-4-F1073 (antibody)
heavy: QVQLQESGPGLVKPSETLSLTCAVSGHSISHDHAWSWVRQPPGEGLEWIGFISYSGITNYNPSLQGRVTISRDNSKNTLYLQMNSLRAEDTAVYYCARSLARTTAMDYWGEGTLVTVSSASTKGPSVFPLAPSSKSTSGGTAALGCLVKDYFPEPVTVSWNSGALTSGVHTFPAVLQSSGLYSLSSVVTVPSSSLGTQTYICNVNHKPSNTKVDKKVEPKSCDKTHTCPPCPAPELLGGPSVFLFPPKPKDTLYISRTPEVTCVVVDVSHEDPEVKFNWYVDGVEVHNAKTKPREEQYNSTYRVVSVLTVLHQDWLNGKEYKCKVSNKALPAPIEKTISKAKGQPREPQVYTLPPSRDELTKNQVSLTCLVKGFYPSDIAVEWESNGQPENNYKTTPPVLDSDGSFFLYSKLTVDKSRWQQGNVFSCSVMHEALHYHVTQKRLSLSP
light: DIQMTQSPSSLSASVGDSVTITCQASTDISSHLNWYQQKPGKAPELLIYYGSHLLSGVPSRFSGSGSGTDFTFTISSLEAEDAATYYCGQGNRLPYTFGQGTKVEIERTVAAPSVFIFPPSDEQLKSGTASVVCLLNNFYPREAKVQWKVDNALQSGNSQESVTEQDSKDSTYSLSSTLTLSKADYEKHKVYACEVTHQGLSSPVTKSFNRGEC
- Kd: 134 nM

B5: Fv-4-F1062 (antibody, human IgG1, kappa)
heavy: B2 heavy with P389R, R442S
light: B2 light
- Kd: 120 nM

B6: Fv-4-F1061 (antibody, human IgG1, kappa)
heavy: B2 heavy with P389E, R442S
light: B2 light
- Kd: 120 nM

B8: Fv-4-F1064 (antibody, human IgG1, kappa)
heavy: B2 heavy with V424E, R442S
light: B2 light
- Kd: 130 nM

B9: Fv-4-F1070 (antibody, human IgG1, kappa)
heavy: B2 heavy with Q440R, R442S
light: B2 light
- Kd: 170 nM

B10: Fv-4-F1072 (antibody)
heavy: B2 heavy with R442E
light: B2 light
- Kd: 130 nM

B14: Fv-4-F1069 (antibody, human IgG1, kappa)
heavy: B2 heavy with Q440E, R442S
light: B2 light
- Kd: 140 nM

B15: Fv-4-F1104 (antibody, human IgG1, kappa)
heavy: B2 heavy with V424E, S426R, R442S
light: B2 light
- Kd: 180 nM

Now from value to binder:

- Kd: 140 nM
B1: Fv-4-F1060 (antibody, human IgG1, kappa)
heavy: B2 heavy with Q388S, R442S
light: B2 light

- Kd: 120 nM
B3: Fv-4-F1071 (antibody, human IgG1, kappa)
heavy: B2 heavy with Q440S, R442S
light: B2 light

- Kd: 170 nM
B4: Fv-4-F1068 (antibody, human IgG1, kappa)
heavy: B2 heavy with S426R, R442S
light: B2 light

- Kd: 140 nM
B7: Fv-4-F1066 (antibody, human IgG1, kappa)
heavy: B2 heavy with V424S, R442S
light: B2 light

- Kd: 130 nM
B11: Fv-4-F1067 (antibody, human IgG1, kappa)
heavy: B2 heavy with S426E, R442S
light: B2 light

- Kd: 140 nM
B12: Fv-4-F1065 (antibody, human IgG1, kappa)
heavy: B2 heavy with V424R, R442S
light: B2 light

- Kd: 140 nM
B13: Fv-4-F1063 (antibody, human IgG1, kappa)
heavy: B2 heavy with P389S, R442S
light: B2 light
